For one data set, the target named is T1, VvMYBA1-HIS (Vitis vinifera, UniProt Q6L9M9 1-250).
T1 sequence: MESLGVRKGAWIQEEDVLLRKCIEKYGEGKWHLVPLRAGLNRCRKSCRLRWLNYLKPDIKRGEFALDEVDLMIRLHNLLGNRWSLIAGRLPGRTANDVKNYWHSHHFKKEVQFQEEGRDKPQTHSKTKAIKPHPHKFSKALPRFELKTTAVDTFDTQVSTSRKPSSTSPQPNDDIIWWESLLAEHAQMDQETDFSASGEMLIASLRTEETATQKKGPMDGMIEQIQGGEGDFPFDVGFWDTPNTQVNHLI
Briefly: EMSA; LightShift Chemiluminescent EMSA system; buffer, salt, pH and temperature not stated. Particulars: protein: recombinant; tags: His (pET-32a fusion); label: biotin; blunt.

The target in another data set is T2, VvWRKY5-HIS (Vitis vinifera, UniProt F6HUN4 7-329).
T2 sequence: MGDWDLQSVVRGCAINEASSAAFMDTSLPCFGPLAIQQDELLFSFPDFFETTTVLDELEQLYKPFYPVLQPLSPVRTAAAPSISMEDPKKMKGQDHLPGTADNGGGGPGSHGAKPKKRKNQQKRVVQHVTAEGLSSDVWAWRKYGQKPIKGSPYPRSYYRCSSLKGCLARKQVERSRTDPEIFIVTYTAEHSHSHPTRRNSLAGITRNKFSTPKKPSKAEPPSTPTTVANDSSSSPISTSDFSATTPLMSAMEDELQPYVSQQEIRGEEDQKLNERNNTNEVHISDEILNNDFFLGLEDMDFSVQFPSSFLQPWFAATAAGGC
The data set is described as above. Particulars: protein: recombinant, tags: His (pET-32a fusion), blunt.

B1: VvUFGT probe (dsDNA)
DNA 1: GGATGACAACCCCCATGCAGTTGCCACTCTCACAACCCCC
DNA 2: GGGGGTTGTGAGAGTGGCAACTGCATGGGGGTTGTCATCC
B1: the binding result is listed as “binds” with VvMYBA1-HIS and “no binding” with VvWRKY5-HIS (label: biotin).

B2: VvLOX mutant probe (dsDNA)
DNA 1: ACCAGCCAATGGAAAATAGCGAAAATACCTAGTCTATTCC
DNA 2: GGAATAGACTAGGTATTTTCGCTATTTTCCATTGGCTGGT
Take B2: in the data set with VvWRKY5-HIS, the binding result is “no binding”.

For the origin of these results see publication PMC11101322, “VvWRKY5 positively regulates wounding-induced anthocyanin accumulation in grape by interplaying with VvMYBA1 and promoting jasmonic acid biosynthesis”.
